Assay results reported in the RNAGym collection of RNA variant scans (doi:10.7554/elife.80360).

B1: HDV Ribozyme (parent)
chain: GGCCGGCAUGGUCCCAGCCUCCUCGCUGGCGCCGGCUGGGCAACAUUCCGAGGGGACCGUCCCCUCGGUAAUGGCGAAUGGGACCCA

Variants of: B1
Experiment: self-cleavage, relative activity (ratio to wild type); higher = more cleavage; co-transcriptional

Point of comparison: AGCCGGCAUGGUCCCAGGCUCCUCGCUGGCGCCGGCUGGGCAACAUUCCGAGGGGACCGUCCCCUCGGUAAUGGCGAAUGGGACCCA [G1A C18G], self-cleavage 0. Against it:
- AGCCGGCAUGGUCCCAGCCUCCUCGCUGGCGCCGGCUGGGCAACAUUCCGAGGGGACCGUCCCCACGGUAAUGGCGAAUGGGACCCA [G1A U65A] — higher, 0.0692
- AGCCGGCAUGGUCCCAGCCUCCUCGCUGGCGCCGGCUGGGCAACAUUCCGAGGGGACCGUCCCCUCGGUAAUUGCGAAUGGGACCCA [G1A G73U] — higher, 0.0545
- AGCCGGCAUGGUCCCAGCCUCCUCGCUGGCGCCGGCUGGGCAACAUUCCGAGGGGACCGUCCCCUCGGUAAUGGCGAAUGGGACCCA [G1A] — higher, 0.143
- CGCCGGCAUGGUCCCAGCCUCCUCGCUGGCGCCGGCUGGGCAACAUUCCGAGGGGACCGUCCCCUCGGUAAUGGCGAAUGGGACCCA [G1C] — higher, 0.179
- AGCCGGCAUGGUCCCAGCCUCCUCGCUGGCGCCGGCUGGGCAACAUUCCGAGGGGACCGUCCCCUCGGUAAUGGCGAAUUGGACCCA [G1A G80U] — higher, 0.0133
- AGCCGGCAUGGUCCCAGCCUCCUCGCUGGCGCCGGCUGGGCAACAUUACGAGGGGACCGUCCCCUCGGUAAUGGCGAAUGGGACCCA [G1A C48A] — the same, 0
- AGCCGGCAUGGUCCCAGCCUCCUCGCUGGCGCCGGCCGGGCAACAUUCCGAGGGGACCGUCCCCUCGGUAAUGGCGAAUGGGACCCA [G1A U37C] — higher, 0.217
- AGCCGGCAUGGUCCCAGCCUCCUCGCUGGCGCCGGCGGGGCAACAUUCCGAGGGGACCGUCCCCUCGGUAAUGGCGAAUGGGACCCA [G1A U37G] — higher, 0.158
- AGCCGGCAUGGUCCCAGCCUCCUCGCUGGCGCCGCCUGGGCAACAUUCCGAGGGGACCGUCCCCUCGGUAAUGGCGAAUGGGACCCA [G1A G35C] — higher, 0.0723
- AGCCGGCAUGGUCCCAGCCUCCACGCUGGCGCCGGCUGGGCAACAUUCCGAGGGGACCGUCCCCUCGGUAAUGGCGAAUGGGACCCA [G1A U23A] — higher, 0.217
- AGCCGGCAUGGUCCCAGCCUCCUCGCUGGAGCCGGCUGGGCAACAUUCCGAGGGGACCGUCCCCUCGGUAAUGGCGAAUGGGACCCA [G1A C30A] — higher, 0.0875
- AGCCGGCAUGGUCCCAGCCUCCUCGCUGGCGCCGGCUGGGCAACAUUCCGAGGGGACCCUCCCCUCGGUAAUGGCGAAUGGGACCCA [G1A G59C] — higher, 0.229
- AGCCGGCAUGGUCCCAGCCUCCUCGCUGGCGCCGGCUGGGCAACAUUCCGAGGGGACCAUCCCCUCGGUAAUGGCGAAUGGGACCCA [G1A G59A] — higher, 0.0573
- AGCCGGCAUGGUCCCAGCCUCCUCGCUGGCGCCGGCUGGGCAACAUUCCGAGGGGACCUUCCCCUCGGUAAUGGCGAAUGGGACCCA [G1A G59U] — higher, 0.214
- AGCCGGCAUGGUCCCAGCCUCCUCGCUGGCGCCGGCUGGGCAACAUUCCGAGGGGACCGUCCCGUCGGUAAUGGCGAAUGGGACCCA [G1A C64G] — higher, 0.095
- AGCCGGCAUGGUCCCAGCCUCCUCGCUGGCGCCGGCUGGGCAACAUUCCGAGGGGACCGUCCCCUCGGAAAUGGCGAAUGGGACCCA [G1A U69A] — higher, 0.145
- AGCCGGCAUGGUCCCAGCCUCCUCGCUGGCGCCGGCUGGGCAACAUUCCGAGGGGACCGUCCCCUCUGUAAUGGCGAAUGGGACCCA [G1A G67U] — higher, 0.297
- AGCGGGCAUGGUCCCAGCCUCCUCGCUGGCGCCGGCUGGGCAACAUUCCGAGGGGACCGUCCCCUCGGUAAUGGCGAAUGGGACCCA [G1A C4G] — higher, 0.123
- AGCUGGCAUGGUCCCAGCCUCCUCGCUGGCGCCGGCUGGGCAACAUUCCGAGGGGACCGUCCCCUCGGUAAUGGCGAAUGGGACCCA [G1A C4U] — higher, 0.252
- AGCCGGCAUGGUCCCAGCCUCCUCGCUGGCGCCGGCUGGGCAACAUUCCGAGGGGACGGUCCCCUCGGUAAUGGCGAAUGGGACCCA [G1A C58G] — higher, 0.0665
- AGCCGGCAUGGUCCCAGCCUCCUCGCUGGCGCCGGCUGGGCAACAUUCCGAGGGGACUGUCCCCUCGGUAAUGGCGAAUGGGACCCA [G1A C58U] — higher, 0.158
- AGCCGGCAUGGUCCCAGCCUCCUCGCUGGCGCCGGCUGGGCAACAUUCCGAGGGGACCGUCCCCUCGGUAAUGGCGAAUGGAACCCA [G1A G82A] — the same, 0
- AGCCGGCAUGGUCCCAGCCUCCUCGCUGGCGCCGGCUGGGCAACAUUCCGAGGGGACCGUCCCCUCGGUAAUGGCGAAUGGUACCCA [G1A G82U] — higher, 0.095
- AGCCGGCAUGGUCCCAUCCUCCUCGCUGGCGCCGGCUGGGCAACAUUCCGAGGGGACCGUCCCCUCGGUAAUGGCGAAUGGGACCCA [G1A G17U] — higher, 0.0449
- AGCCGGCGUGGUCCCAGCCUCCUCGCUGGCGCCGGCUGGGCAACAUUCCGAGGGGACCGUCCCCUCGGUAAUGGCGAAUGGGACCCA [G1A A8G] — higher, 0.166
- AGCCGGUAUGGUCCCAGCCUCCUCGCUGGCGCCGGCUGGGCAACAUUCCGAGGGGACCGUCCCCUCGGUAAUGGCGAAUGGGACCCA [G1A C7U] — higher, 0.0475
- AGCCGGCAUGGUCCCAGCCUCCUCGCUGGCGCCGGCUGGGCAACAUUCCGAGGGGACCGCCCCCUCGGUAAUGGCGAAUGGGACCCA [G1A U60C] — higher, 0.166
- AGCCGGCAUGGUCCCAGCCUCCUCGCUGGCGCCUGCUGGGCAACAUUCCGAGGGGACCGUCCCCUCGGUAAUGGCGAAUGGGACCCA [G1A G34U] — higher, 0.095
- AGCCGGCAUGGUCCCAGCCUCCUCGCUGGCGCCGGCUGUGCAACAUUCCGAGGGGACCGUCCCCUCGGUAAUGGCGAAUGGGACCCA [G1A G39U] — higher, 0.135
- AGCCGGCAUGGUCCCAGCCUCCUCGCUGGCGCCGGCUGGGCAACAUUCCGAGGGGACCGUCCGCUCGGUAAUGGCGAAUGGGACCCA [G1A C63G] — higher, 0.249
- AGCCGGCAUGGUCCCAGCCUCCUCGCUGGCGCCGGCUGGGCAACAUUCCGAGUGGACCGUCCCCUCGGUAAUGGCGAAUGGGACCCA [G1A G53U] — higher, 0.0386
- AGCCGGCAUGGUCCCAGCCUCCUCGCUGGCGCCGGCUGGGCAACAUUCCGAGCGGACCGUCCCCUCGGUAAUGGCGAAUGGGACCCA [G1A G53C] — the same, 0
- AGCCGGCAUGGUCCCAGCCUCCUCGCUGGCGCCGGCUGGGCAACAUUCCGAGGGGACCGUCUCCUCGGUAAUGGCGAAUGGGACCCA [G1A C62U] — higher, 0.0791
- AGCCGGCAUGGUCCCAGCCUCCUCGCUGGCGCCGGCUGGGCAAAAUUCCGAGGGGACCGUCCCCUCGGUAAUGGCGAAUGGGACCCA [G1A C44A] — higher, 0.0426
- AGCCGGCAUGGUCCCAGCCUCCUCGCUGGCGCCGGCUGGGCAACUUUCCGAGGGGACCGUCCCCUCGGUAAUGGCGAAUGGGACCCA [G1A A45U] — higher, 0.208
- AGCCGGCAUGGUCCCAGCCUCCUCGCUGGCGCCGGCUGGGCAACAUUCCGCGGGGACCGUCCCCUCGGUAAUGGCGAAUGGGACCCA [G1A A51C] — higher, 0.0831
- AGCCGGCAUGGUCCCAGCCUCCUCGCUGGCGCCGGCUGGGCUACAUUCCGAGGGGACCGUCCCCUCGGUAAUGGCGAAUGGGACCCA [G1A A42U] — higher, 0.123
- AGCCGGCAUGGUCCCAGCCUCCUCGCUGGCGCCGGCUGGGCCACAUUCCGAGGGGACCGUCCCCUCGGUAAUGGCGAAUGGGACCCA [G1A A42C] — higher, 0.0369
- AGCCGGCAUGGUCCUAGCCUCCUCGCUGGCGCCGGCUGGGCAACAUUCCGAGGGGACCGUCCCCUCGGUAAUGGCGAAUGGGACCCA [G1A C15U] — higher, 0.0665
- AGCCGGCAUGGUCCAAGCCUCCUCGCUGGCGCCGGCUGGGCAACAUUCCGAGGGGACCGUCCCCUCGGUAAUGGCGAAUGGGACCCA [G1A C15A] — higher, 0.0923
- AGCCGGCAUGGUCCCAGUCUCCUCGCUGGCGCCGGCUGGGCAACAUUCCGAGGGGACCGUCCCCUCGGUAAUGGCGAAUGGGACCCA [G1A C18U] — higher, 0.0475
- AGCCGGCAUGGUCCCAGCCUCCUCGCUGGCGCCGGCUGGACAACAUUCCGAGGGGACCGUCCCCUCGGUAAUGGCGAAUGGGACCCA [G1A G40A] — higher, 0.119
- AGCCGGCAUGGUCCCAGCCUCCUCGCUGGCGCCGGCUGGCCAACAUUCCGAGGGGACCGUCCCCUCGGUAAUGGCGAAUGGGACCCA [G1A G40C] — higher, 0.0437
- AGCCGGCAUGGUCCCAGCCUCCUCGCUGGCGCCGGCUGGUCAACAUUCCGAGGGGACCGUCCCCUCGGUAAUGGCGAAUGGGACCCA [G1A G40U] — higher, 0.0615
- AGCCGGCAUGGUCCCAGCCUCCUCGCUGGCGCCGGCUGGGCAACAUUCCGAGGGGACCGUCCCCUCGGUAUUGGCGAAUGGGACCCA [G1A A71U] — higher, 0.256
- AGCCGGCAUGGUCCCAGCCUCCUCGCUGGCGCCGGCUGGGCAACAUUCCGAGGGGACCGUCCCCUCGGUACUGGCGAAUGGGACCCA [G1A A71C] — higher, 0.145
- CGCCGGCAUGGUCCCAGCCUCCUCGCUGGCGCCGGCUGGGCUACAUUCCGAGGGGACCGUCCCCUCGGUAAUGGCGAAUGGGACCCA [G1C A42U] — the same, 0
- CGCCGGCAUGGUCCCAGCCUCCUCGCUGGCGCCGGCUGGGCGACAUUCCGAGGGGACCGUCCCCUCGGUAAUGGCGAAUGGGACCCA [G1C A42G] — the same, 0
- AGCCGGCAUGGUCCCAGCCUCCUCGCUGGCGCCGGCUGGGCAACAUUCCGAGGGGACCGUCCCCUCGGUAAUGGCGAAUGGGACACA [G1A C85A] — higher, 0.0852
- AGCCGGCAUGGUCCCAGCCUCCUCGCUGGCGCCGGCUGGGCAACAUUCCGAGGGGACCGUCCCCUCGGUAAUGGAGAAUGGGACCCA [G1A C75A] — higher, 0.161
- AGCCGGCAUGGUCCCAGCCUCCUCGCUGGCGCCGGCUGGGCAACAUUCCGAGGGGACCGUCCCCUCGGUAAUGGGGAAUGGGACCCA [G1A C75G] — higher, 0.108
- AGCCAGCAUGGUCCCAGCCUCCUCGCUGGCGCCGGCUGGGCAACAUUCCGAGGGGACCGUCCCCUCGGUAAUGGCGAAUGGGACCCA [G1A G5A] — higher, 0.0755
- AGCCUGCAUGGUCCCAGCCUCCUCGCUGGCGCCGGCUGGGCAACAUUCCGAGGGGACCGUCCCCUCGGUAAUGGCGAAUGGGACCCA [G1A G5U] — higher, 0.101
- AGCCGGCAUGGUCCCAGCCUCCUCGCUGUCGCCGGCUGGGCAACAUUCCGAGGGGACCGUCCCCUCGGUAAUGGCGAAUGGGACCCA [G1A G29U] — higher, 0.0639
- AGCCGGCAUGGUCCCAGCCUCCUCGCUGGCGCCGGCUGGGCAACACUCCGAGGGGACCGUCCCCUCGGUAAUGGCGAAUGGGACCCA [G1A U46C] — higher, 0.208
- AACCGGCAUGGUCCCAGCCUCCUCGCUGGCGCCGGCUGGGCAACAUUCCGAGGGGACCGUCCCCUCGGUAAUGGCGAAUGGGACCCA [G1A G2A] — higher, 0.457
- AGCCGGCAUGGUCCCAGCGUCCUCGCUGGCGCCGGCUGGGCAACAUUCCGAGGGGACCGUCCCCUCGGUAAUGGCGAAUGGGACCCA [G1A C19G] — higher, 0.0875
- AGCCGGCAUGGUCCCAGCCUCGUCGCUGGCGCCGGCUGGGCAACAUUCCGAGGGGACCGUCCCCUCGGUAAUGGCGAAUGGGACCCA [G1A C22G] — higher, 0.0978
- AGCCGGCAUGGUCCCAGCCUCCUCGCUGGCGCCGGCUUGGCAACAUUCCGAGGGGACCGUCCCCUCGGUAAUGGCGAAUGGGACCCA [G1A G38U] — higher, 0.0845
- AGCCGGCAUGGUCCCAGCCUCCUCGCUGGCGCCGGCUAGGCAACAUUCCGAGGGGACCGUCCCCUCGGUAAUGGCGAAUGGGACCCA [G1A G38A] — higher, 0.0332
- AGCCGGCAUGGUCCCAGCCUCCUCGCUGGCGCCGGCUGGGCAACAUUCCGAGGGGACCGUCCCCUCGGUAAUGGCGAAUGGGACCGA [G1A C86G] — higher, 0.185
- AGCCGGCAUGGUCCCAGCCUCCUCGCUGGCGCCGGCUGGGCAACAUUCCGAGGGGACCGUCCCCUCGUUAAUGGCGAAUGGGACCCA [G1A G68U] — higher, 0.178
- AGCCGGCAUGGUCCCAGCCUCCUCGCUGGCGCCGGCUGGGCAACAUUCCGAGGGGACCGUCCCCUGGGUAAUGGCGAAUGGGACCCA [G1A C66G] — higher, 0.308
